Positions count from the first letter of the chain named.
T1: Recombinant Human FGF-23 (R&D Systems, Cat No. 2604-FG-025/CF) (human, UniProt Q9GZV9 25-251)
T1 construct: Bought protein
T1 sequence (looked up): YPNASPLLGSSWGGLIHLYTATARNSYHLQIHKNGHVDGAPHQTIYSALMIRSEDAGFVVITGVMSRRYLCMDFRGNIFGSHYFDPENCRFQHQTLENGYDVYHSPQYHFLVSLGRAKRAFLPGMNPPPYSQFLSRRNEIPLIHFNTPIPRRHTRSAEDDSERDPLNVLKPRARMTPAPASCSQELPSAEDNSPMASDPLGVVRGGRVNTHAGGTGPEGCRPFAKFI

B1: antibody I100A (antibody, human IgG1, V domains shown)
VH: QVQLVQSGAEVKKPGASVKVSCKASGYTFTNHYMHWVRQAPGQGLEWMGIINPISGSTSNAQKFQGRVTMTRDTSTSTVYMELSSLRSEDTAVYYCARDAVDAFDFWGQGTMVTVSS
VL: AIQLTQSPSSLSASVGDRVTITCRASQGISSALVWYQQKPGKAPKLLIYDASSLESGVPSRFSGSGSGTDFTLTISSLQPEDFATYYCQQFNDYFTFGPGTKVDIK
notes: also called modified antibody I100
B2: antibody A_LS (antibody, human IgG1, name in EU numbering)
heavy: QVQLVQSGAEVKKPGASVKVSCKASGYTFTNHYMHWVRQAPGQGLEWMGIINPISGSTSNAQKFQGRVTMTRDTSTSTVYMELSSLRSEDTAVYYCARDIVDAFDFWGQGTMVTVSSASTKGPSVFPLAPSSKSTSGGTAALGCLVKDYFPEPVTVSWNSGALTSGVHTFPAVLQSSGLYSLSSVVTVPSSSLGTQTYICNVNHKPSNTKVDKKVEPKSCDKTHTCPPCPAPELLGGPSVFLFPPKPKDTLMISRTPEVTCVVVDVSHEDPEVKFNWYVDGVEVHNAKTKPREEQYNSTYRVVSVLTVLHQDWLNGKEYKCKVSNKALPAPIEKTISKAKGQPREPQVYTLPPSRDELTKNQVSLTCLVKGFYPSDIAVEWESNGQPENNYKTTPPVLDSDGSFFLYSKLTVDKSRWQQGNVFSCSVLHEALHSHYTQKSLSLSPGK
light: B1 VL
notes: positions are EU index; not shown: human kappa chain constant region; copies: 2 + 2
B3: antibody A_G2_LS (antibody)
heavy: QVQLVQSGAEVKKPGASVKVSCKASGYTFTNHYMHWVRQAPGQGLEWMGIINPISGSTSNAQKFQGRVTMTRDTSTSTVYMELSSLRSEDTAVYYCARDIVDAFDFWGQGTMVTVSSASTKGPSVFPLAPCSRSTSESTAALGCLVKDYFPEPVTVSWNSGALTSGVHTFPAVLQSSGLYSLSSVVTVPSSNFGTQTYTCNVDHKPSNTKVDKTVERKCCVECPPCPAPPVAGPSVFLFPPKPKDTLMISRTPEVTCVVVDVSHEDPEVQFNWYVDGVEVHNAKTKPREEQFNSTFRVVSVLTVVHQDWLNGKEYKCKVSNKGLPAPIEKTISKTKGQPREPQVYTLPPSREEMTKNQVSLTCLVKGFYPSDIAVEWESNGQPENNYKTTPPMLDSDGSFFLYSKLTVDKSRWQQGNVFSCSVLHEALHSHYTQKSLSLSPGK
light: B1 VL
notes: not shown: human kappa chain constant region; copies: 2 + 2
B4: antibody A-1 (antibody, V domains shown)
VH: B1 VH with I50L, I54W, S55H, S57T, T58F
VL: B1 VL
notes: VH J2H2B9_A; not shown: human kappa chain constant region
B5: antibody A-2 (antibody, V domains shown)
VH: B1 VH with I50L, I54W, S55H, S57T, T58F, A100Y
VL: B1 VL
notes: VH J2H2B9_Y; not shown: human kappa chain constant region
B6: antibody A-3 (antibody, V domains shown)
VH: B1 VH
VL: B1 VL with F91M, N92Y, Y94D, T96N
notes: VL L3G12; not shown: human kappa chain constant region
B7: antibody A-4 (antibody, V domains shown)
VH: B1 VH with A100Y
VL: B1 VL with F91M, N92Y, Y94D, T96N
notes: as for B6
B8: antibody A-5 (antibody, V domains shown)
VH: B1 VH
VL: B1 VL with G28D, I29V, S31T, V34L
notes: VL L1H8; not shown: human kappa chain constant region
B9: antibody A-6 (antibody, V domains shown)
VH: B1 VH with A100Y
VL: B1 VL with G28D, I29V, S31T, V34L
notes: as for B8
B10: antibody A-7 (antibody, V domains shown)
VH: B1 VH
VL: B1 VL with F91L, N92Y, Y94D, T96D
notes: VL 2L3H7; not shown: human kappa chain constant region
B11: antibody A-8 (antibody, V domains shown)
VH: B1 VH with A100Y
VL: B1 VL with F91L, N92Y, Y94D, T96D
notes: as for B10
B12: antibody D105A (antibody, human IgG1, V domains shown)
VH: B1 VH with A100I, D105A
VL: B1 VL
notes: also called modified antibody D105
B13: antibody D105T (antibody, human IgG1, V domains shown)
VH: B1 VH with A100I, D105T
VL: B1 VL
notes: as for B12
B14: antibody A_IgG4PE_R409K (antibody)
heavy: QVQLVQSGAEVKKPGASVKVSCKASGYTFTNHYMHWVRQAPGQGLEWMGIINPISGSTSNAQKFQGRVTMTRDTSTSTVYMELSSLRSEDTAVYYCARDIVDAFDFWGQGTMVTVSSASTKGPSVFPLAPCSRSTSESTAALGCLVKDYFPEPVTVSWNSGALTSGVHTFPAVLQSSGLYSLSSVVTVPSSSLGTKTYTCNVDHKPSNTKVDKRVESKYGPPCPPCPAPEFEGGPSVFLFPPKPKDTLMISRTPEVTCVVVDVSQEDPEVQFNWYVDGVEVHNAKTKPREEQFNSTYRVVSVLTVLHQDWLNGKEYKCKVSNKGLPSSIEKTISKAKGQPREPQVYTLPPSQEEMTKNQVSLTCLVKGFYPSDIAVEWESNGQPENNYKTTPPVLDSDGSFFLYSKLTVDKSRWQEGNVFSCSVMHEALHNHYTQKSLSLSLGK
VL: B1 VL
notes: copies: 2 + 2
B15: antibody A_IgG4PE_R409K_P (antibody)
heavy: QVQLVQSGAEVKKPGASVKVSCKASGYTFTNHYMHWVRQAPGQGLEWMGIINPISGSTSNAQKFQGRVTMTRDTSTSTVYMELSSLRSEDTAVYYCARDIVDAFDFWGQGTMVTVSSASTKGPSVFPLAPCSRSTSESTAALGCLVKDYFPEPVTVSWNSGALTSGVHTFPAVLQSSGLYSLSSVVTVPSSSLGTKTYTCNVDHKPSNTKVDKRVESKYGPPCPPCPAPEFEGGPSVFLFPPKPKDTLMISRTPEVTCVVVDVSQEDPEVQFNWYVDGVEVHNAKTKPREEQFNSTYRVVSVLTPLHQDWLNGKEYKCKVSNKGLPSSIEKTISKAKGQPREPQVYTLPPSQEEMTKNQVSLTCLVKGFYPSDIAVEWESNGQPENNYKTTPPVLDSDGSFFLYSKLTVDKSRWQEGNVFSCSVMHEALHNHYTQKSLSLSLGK
light: B1 VL
notes: as for B3
B16: antibody A_IgG4PE_R409K_YTE (antibody)
heavy: QVQLVQSGAEVKKPGASVKVSCKASGYTFTNHYMHWVRQAPGQGLEWMGIINPISGSTSNAQKFQGRVTMTRDTSTSTVYMELSSLRSEDTAVYYCARDIVDAFDFWGQGTMVTVSSASTKGPSVFPLAPCSRSTSESTAALGCLVKDYFPEPVTVSWNSGALTSGVHTFPAVLQSSGLYSLSSVVTVPSSSLGTKTYTCNVDHKPSNTKVDKRVESKYGPPCPPCPAPEFEGGPSVFLFPPKPKDTLYITREPEVTCVVVDVSQEDPEVQFNWYVDGVEVHNAKTKPREEQFNSTYRVVSVLTVLHQDWLNGKEYKCKVSNKGLPSSIEKTISKAKGQPREPQVYTLPPSQEEMTKNQVSLTCLVKGFYPSDIAVEWESNGQPENNYKTTPPVLDSDGSFFLYSKLTVDKSRWQEGNVFSCSVMHEALHNHYTQKSLSLSLGK
VL: B1 VL
notes: copies: 2 + 2
B17: antibody A_IgG4PE_R409K_QL (antibody)
chain 1: B16 heavy with T247Q, Y249M, T251S, E253T, M425L
chain 2: not shown
B18: antibody I100L (antibody, human IgG1, V domains shown)
VH: B1 VH with A100L
VL: B1 VL
notes: as for B1
B19: antibody I100V (antibody, human IgG1, V domains shown)
VH: B1 VH with A100V
VL: B1 VL
notes: as for B1
B20: antibody I100D (antibody, human IgG1, V domains shown)
VH: B1 VH with A100D
VL: B1 VL
notes: as for B1
B21: antibody I100G (antibody, human IgG1, V domains shown)
VH: B1 VH with A100G
VL: B1 VL
notes: as for B1
B22: antibody I100H (antibody, human IgG1, V domains shown)
VH: B1 VH with A100H
VL: B1 VL
notes: as for B1
B23: antibody I100N (antibody, human IgG1, V domains shown)
VH: B1 VH with A100N
VL: B1 VL
notes: as for B1
B24: antibody I100R (antibody, human IgG1, V domains shown)
VH: B1 VH with A100R
VL: B1 VL
notes: as for B1
B25: antibody I100Y (antibody, human IgG1, V domains shown)
VH: B1 VH with A100Y
VL: B1 VL
notes: as for B1

target: T1, Recombinant Human FGF-23 (R&D Systems, …); assay: SPR, antibody captured by anti-human IgG, FGF-23 analyte

| Kd [nM] | Binder |
| --- | --- |
| 0.0289 | B1 |

target: T2, human FcRn (human FcRn-His tag with human β2 microglobulin) (human, UniProt P55899 24-297; P61769 21-119); assay: SPR pH 6, FcRn-His captured by anti-His, antibody analyte
T2 construct: also called h FcRn; hFcRn

| Kd [nM] | Binder |
| --- | --- |
| 142 | B2 |
| 310 | B3 |

target: T1, Recombinant Human FGF-23 (R&D Systems, …); assay: cell-based or functional assay

| FGF23 neutralizing activity IC50 (luciferase promoter assay) [ng/mL] | Binder |
| --- | --- |
| 3.5 | B4 |
| 3.4 | B5 |
| 2.7 | B6 |
| 1.9 | B7 |
| 1.9 | B8 |
| 3.6 | B9 |
| 3.2 | B10 |
| 2.4 | B11 |

target: T1, Recombinant Human FGF-23 (R&D Systems, …); assay: SPR, antibody captured on Protein A chip, FGF-23 analyte

| Kd [nM] | Binder |
| --- | --- |
| 0.00822 | B4 |
| 0.00808 | B5 |
| 0.00827 | B6 |
| 0.00874 | B7 |
| 0.00361 | B8 |
| 0.0113 | B9 |
| 0.0161 | B10 |
| 0.0067 | B11 |

target: T1, Recombinant Human FGF-23 (R&D Systems, …); assay: SPR, antibody captured by anti-human IgG, FGF-23 analyte; remark: another data set of the same source

| Kd [nM] | Binder |
| --- | --- |
| 0.108 | B12 |
| 0.111 | B13 |

target: T2, human FcRn (human FcRn-His tag with …); assay: SPR pH 6, FcRn-His captured by anti-His, antibody analyte; remark: another data set of the same source

| Kd [nM] | Binder |
| --- | --- |
| 912 | B14 |
| 192 | B15 |
| 227 | B16 |
| 265 | B17 |

target: T3, monkey FcRn (monkey FcRn-His tag with monkey β2 microglobulin) (cynomolgus monkey, UniProt Q8SPV9 24-297; Q8SPW0 21-119); assay: as above
T3 construct: also called cyno FcRn; cynomolgus monkey FcRn extracellular domain His-tag body
T3 sequence (Q8SPV9 other isoform, or with tags, fused parts or gaps limits assumed, chain 1 of 2): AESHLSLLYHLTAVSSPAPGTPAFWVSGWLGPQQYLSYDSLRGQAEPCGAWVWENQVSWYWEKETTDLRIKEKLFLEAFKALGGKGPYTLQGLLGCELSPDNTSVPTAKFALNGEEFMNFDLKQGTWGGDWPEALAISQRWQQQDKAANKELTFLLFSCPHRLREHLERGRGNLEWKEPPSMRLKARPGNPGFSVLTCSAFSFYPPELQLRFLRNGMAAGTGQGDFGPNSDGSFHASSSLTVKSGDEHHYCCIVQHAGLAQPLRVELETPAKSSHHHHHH
T3 sequence (Q8SPW0 21-119 limits assumed, chain 2 of 2): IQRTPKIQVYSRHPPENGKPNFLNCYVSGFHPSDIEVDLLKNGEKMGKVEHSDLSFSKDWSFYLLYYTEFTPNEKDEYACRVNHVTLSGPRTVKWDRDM

| Kd [nM] | Binder |
| --- | --- |
| 324 | B14 |
| 76.9 | B15 |
| 123 | B16 |
| 87 | B17 |

target: T1, Recombinant Human FGF-23 (R&D Systems, …); assay: SPR, antibody captured by anti-human IgG, FGF-23 analyte; remark: another data set of the same source

| Kd [nM] | Binder |
| --- | --- |
| 0.014 | B1 |
| 0.0126 | B18 |
| 0.00473 | B19 |

target: T1, Recombinant Human FGF-23 (R&D Systems, …); assay: as above; remark: another data set of the same source

| Kd [nM] | Binder |
| --- | --- |
| 0.0251 | B1 |
| 0.219 | B20 |
| 0.149 | B21 |
| 0.0672 | B22 |
| 0.0934 | B23 |
| 0.222 | B24 |
| 0.0186 | B25 |

target: T1, Recombinant Human FGF-23 (R&D Systems, …); assay: cell-based or functional assay; remark: another data set of the same source

| FGF23 neutralizing activity IC50 (luciferase promoter assay) [ng/mL] | Binder |
| --- | --- |
| > 100 | B12 |
| > 100 | B13 |
| 5.1 | B1 |
| > 100 | B20 |
| > 100 | B21 |
| 8.9 | B22 |
| 26.2 | B23 |
| 82.5 | B24 |
| 3 | B25 |

From patent US20250163140A1 (Kyowa Kirin, published 2025)
